± gives the uncertainty stated by the source.
Experiment: self-splicing fitness, log relative to wild type (ln ratio); higher = more splicing; Tetrahymena group I intron in knt gene, E. coli kanamycin selection, DiMSum; sequences stand for … in CUCUCU…GGAGGGAAAAGUUAUCAGGCAUGCACCUGGUAGCUAGUCUUUAAACCAAUAGAUUGCAUCGGUUUAAAAGGCAAGACCGUCAAAUUGCGGGAAAGGGGUCAACAGCCGUUCAGUACCAAGUCUCAGGGGAAACUUUGAGAUGGCCUUGCAAAGGGUAUGGUAAUAAGCUGACGGACAUGGUCCUAACCACGCAGCCAAGUCCUAAGUCAACAGAUCUUCUGUUGAUAUGGAUGCAGUUCACAGACUAAAUGUCGGUCGGGGAAGAUGUAUUCUUCUCAUAAGAUAUAGUCGGACCUCUCCUUAAUGGGAGCUAGCGGAUGAAGUGAUGCAACACUGGAGCCGCUGGGAACUAAUUUGUAUGCGAAAGUAUAUUGAUUAGUUUUGGAGUACUCGUGGUCG
Method in brief: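 DiMSum derived fitness as the error-weighted combination of fold changes across replicates, kanamycin versus no kanamycin, normalised to wild type. E. coli BL21(DE3) held the library, which randomised all eight P1ex-region intron nucleotides within the knt kanamycin-resistance gene on pET-22b(+). Six replicate transformations grew overnight at 37°C or 30°C on LB agar with or without 25 μg/mL kanamycin, also containing 100 μg/mL carbenicillin, 50 μM IPTG and 0.2% rhamnose, and pooled colonies were amplicon-sequenced on an Illumina HiSeq 2500.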

Sequence | self-splicing fitness (ln) (30 °C) | self-splicing fitness (ln) (37 °C)
GUUCAGCAAUAUUACGACCA | -0.964 ± 0.14 | -0.856 ± 0.13
GUUCAGCAAUAUUACGACGA | -1.26 ± 0.21 | -0.637 ± 0.18
GUUCAGCAAUAUUACGACUG | -3.57 ± 0.28 | -0.988 ± 0.14
GUUCAGCAAUAUUACGAGGC | -2.38 ± 0.48 | -1.27 ± 0.2
GUUCAGCAAUAUUACGAUUG | -0.497 ± 0.093 | -0.904 ± 0.15
GUUCAGCAAUAUUACGCACU | -0.633 ± 0.085 | 0.537 ± 0.12
GUUCAGCAAUAUUACGCAGG | -1.35 ± 0.14 | -1.28 ± 0.17
GUUCAGCAAUAUUACGCGAG | -0.511 ± 0.11 | -0.381 ± 0.11
GUUCAGCAAUAUUACGCGAU | -2.39 ± 0.13 | -2.74 ± 0.24
GUUCAGCAAUAUUACGCUAG | -0.585 ± 0.073 | -0.102 ± 0.093
GUUCAGCAAUAUUACGGAUC | -1.33 ± 0.098 | -0.366 ± 0.1
GUUCAGCAAUAUUACGGAUG | -0.518 ± 0.081 | 0.107 ± 0.085
GUUCAGCAAUAUUACGGAUU | -0.537 ± 0.092 | 0.247 ± 0.14
GUUCAGCAAUAUUACGGCUC | 0.0792 ± 0.12 | -0.018 ± 0.12
GUUCAGCAAUAUUACGGGUC | -1.11 ± 0.11 | -1.35 ± 0.12
GUUCAGCAAUAUUACGGGUU | -1.65 ± 0.089 | -0.108 ± 0.083
GUUCAGCAAUAUUACGGUGC | -1.34 ± 0.14 | -0.357 ± 0.12
GUUCAGCAAUAUUACGUAAA | 0.0969 ± 0.077 | 0.494 ± 0.11
GUUCAGCAAUAUUACGUAGG | -0.609 ± 0.082 | 0.163 ± 0.1
GUUCAGCAAUAUUACGUAUA | -0.905 ± 0.15 | -1.1 ± 0.17
GUUCAGCAAUAUUACGUAUU | -0.531 ± 0.057 | -0.576 ± 0.074
GUUCAGCAAUAUUACGUCUU | -0.624 ± 0.056 | -0.758 ± 0.064
GUUCAGCAAUAUUACGUGUC | -0.83 ± 0.097 | 0.00179 ± 0.094
GUUCAGCAAUAUUACGUUCA | -0.741 ± 0.12 | -0.425 ± 0.13
GUUGAGCAAUAUUACGACCG |  | -1.77 ± 0.47
GUUGAGCAAUAUUACGAUGC | -2.24 ± 0.49 | -2.24 ± 0.45
GUUGAGCAAUAUUACGCAAG | -2.77 ± 0.21 | -1.79 ± 0.26

Sequence | self-splicing fitness (ln) (30 °C) | self-splicing fitness (ln) (37 °C)
GUUGAGCAAUAUUACGCAAU | -2.68 ± 0.2 | -3.31 ± 0.29
GUUGAGCAAUAUUACGCAGG | -3.35 ± 0.28 | -1.75 ± 0.37
GUUGAGCAAUAUUACGCGCC | -2.97 ± 0.37 | 
GUUGAGCAAUAUUACGCUCG | -2.49 ± 0.16 | -2.34 ± 0.3
GUUGAGCAAUAUUACGCUCU | -2.49 ± 0.47 | 
GUUGAGCAAUAUUACGGGAC | -2.69 ± 0.34 | -1.49 ± 0.35
GUUGAGCAAUAUUACGGUGU | -2.22 ± 0.2 | -1.1 ± 0.33
GUUGAGCAAUAUUACGGUUA | -1.88 ± 0.28 | -2.09 ± 0.24
GUUGAGCAAUAUUACGUCAC | -3.41 ± 0.43 | -1.86 ± 0.23
GUUGAGCAAUAUUACGUGAG | -1.93 ± 0.15 | -1.42 ± 0.19
GUUGAGCAAUAUUACGUGUC | -2.34 ± 0.14 | -2.2 ± 0.2
GUUGAGCAAUAUUACGUUCG | -1.34 ± 0.086 | -1.67 ± 0.11
GUUGAGCAAUAUUACGUUGU | -3.09 ± 0.23 | -1.68 ± 0.17
GUUUAGCAAUAUUACGAAAA | -1.78 ± 0.29 | -0.97 ± 0.25
GUUUAGCAAUAUUACGAAGA |  | -0.651 ± 0.34
GUUUAGCAAUAUUACGAAGU | -2.65 ± 0.16 | -2.03 ± 0.38
GUUUAGCAAUAUUACGAGCA | -1.35 ± 0.25 | -0.983 ± 0.48
GUUUAGCAAUAUUACGAGCU |  | -0.552 ± 0.27
GUUUAGCAAUAUUACGAGGA | -2.48 ± 0.44 | -1.79 ± 0.37
GUUUAGCAAUAUUACGAGGC | -2.48 ± 0.24 | -2.45 ± 0.24
GUUUAGCAAUAUUACGCCCU | -0.651 ± 0.098 | -0.533 ± 0.11
GUUUAGCAAUAUUACGCCUU | -1.21 ± 0.17 | -0.678 ± 0.21
GUUUAGCAAUAUUACGCGAA | -3.53 ± 0.49 | -2.01 ± 0.22
GUUUAGCAAUAUUACGCGCA | -0.466 ± 0.1 | -0.363 ± 0.12
GUUUAGCAAUAUUACGCUCG | -0.147 ± 0.15 | 0.0286 ± 0.21
GUUUAGCAAUAUUACGGACU |  | 1.32 ± 0.45
GUUUAGCAAUAUUACGGCAA | -0.678 ± 0.14 | -1.03 ± 0.13

Sequence | self-splicing fitness (ln) (30 °C) | self-splicing fitness (ln) (37 °C)
GUUUAGCAAUAUUACGGCUC | 0.0411 ± 0.094 | 0.193 ± 0.12
GUUUAGCAAUAUUACGGGGC | -2.67 ± 0.33 | 
GUUUAGCAAUAUUACGGUCA | -1.26 ± 0.19 | -0.326 ± 0.16
GUUUAGCAAUAUUACGGUUU | -1.32 ± 0.1 | -0.0737 ± 0.13
GUUUAGCAAUAUUACGUAUC | -0.904 ± 0.28 | -0.233 ± 0.36
GUUUAGCAAUAUUACGUCAC | -3.24 ± 0.24 | -0.353 ± 0.17
GUUUAGCAAUAUUACGUCCU | -1.12 ± 0.24 | -1.03 ± 0.25
GUUUAGCAAUAUUACGUCUU | -0.801 ± 0.11 | -0.25 ± 0.11
GUUUAGCAAUAUUACGUGCC | -2.91 ± 0.36 | 
GUUUAGCAAUAUUACGUUGG | -3.81 ± 0.37 | -1.45 ± 0.23
UAAAAGCAAUAUUACGAAAA | -2.94 ± 0.2 | -1.71 ± 0.16
UAAAAGCAAUAUUACGAACA | -0.822 ± 0.072 | 0.504 ± 0.11
UAAAAGCAAUAUUACGAACC | -3.12 ± 0.36 | -1.25 ± 0.45
UAAAAGCAAUAUUACGACCC | -1.73 ± 0.28 | 0.481 ± 0.33
UAAAAGCAAUAUUACGACGA | -0.526 ± 0.087 | -0.201 ± 0.086
UAAAAGCAAUAUUACGAGCU | -2.07 ± 0.11 | -1.68 ± 0.14
UAAAAGCAAUAUUACGAUCA | -0.503 ± 0.08 | 0.0071 ± 0.11
UAAAAGCAAUAUUACGCAAG | -1.48 ± 0.06 | -0.639 ± 0.073
UAAAAGCAAUAUUACGCCGA | -1.16 ± 0.12 | -0.318 ± 0.14
UAAAAGCAAUAUUACGCCGU | -3.01 ± 0.21 | -2.1 ± 0.22
UAAAAGCAAUAUUACGCGCU | -1.22 ± 0.14 | 0.0478 ± 0.17
UAAAAGCAAUAUUACGCGGG | -2.62 ± 0.1 | -1.43 ± 0.12
UAAAAGCAAUAUUACGCUGA | -2.35 ± 0.2 | -0.613 ± 0.14
UAAAAGCAAUAUUACGCUGC | -2.51 ± 0.18 | -1.35 ± 0.26
UAAAAGCAAUAUUACGCUUC |  | -3.19 ± 0.25
